In this series the target is T1, Rad54 (Saccharomyces cerevisiae, UniProt P32863 1-898).
T1 sequence: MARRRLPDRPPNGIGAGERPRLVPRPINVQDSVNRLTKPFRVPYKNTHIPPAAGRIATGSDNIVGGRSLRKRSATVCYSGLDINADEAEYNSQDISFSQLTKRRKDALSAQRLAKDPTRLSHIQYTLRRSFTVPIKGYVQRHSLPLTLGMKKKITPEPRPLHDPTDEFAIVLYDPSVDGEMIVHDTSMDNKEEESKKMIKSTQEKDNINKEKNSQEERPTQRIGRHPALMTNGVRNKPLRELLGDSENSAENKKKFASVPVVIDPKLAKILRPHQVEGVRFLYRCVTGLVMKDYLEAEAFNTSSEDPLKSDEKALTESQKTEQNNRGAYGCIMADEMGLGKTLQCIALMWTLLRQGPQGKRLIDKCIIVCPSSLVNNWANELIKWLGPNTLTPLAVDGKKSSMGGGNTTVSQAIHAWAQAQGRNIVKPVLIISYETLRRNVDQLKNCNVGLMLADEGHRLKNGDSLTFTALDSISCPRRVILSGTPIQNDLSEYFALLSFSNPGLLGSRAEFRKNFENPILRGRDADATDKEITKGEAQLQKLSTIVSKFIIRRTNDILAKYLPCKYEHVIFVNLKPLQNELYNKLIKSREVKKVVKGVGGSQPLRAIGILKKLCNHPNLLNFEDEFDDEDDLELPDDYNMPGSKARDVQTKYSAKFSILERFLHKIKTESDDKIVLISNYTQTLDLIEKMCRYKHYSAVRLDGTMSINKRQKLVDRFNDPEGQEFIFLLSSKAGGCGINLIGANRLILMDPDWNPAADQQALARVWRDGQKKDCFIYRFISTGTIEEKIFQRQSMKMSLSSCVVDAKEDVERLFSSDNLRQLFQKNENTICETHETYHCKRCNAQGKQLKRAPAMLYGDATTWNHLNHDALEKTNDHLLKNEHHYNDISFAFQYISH
The experiment in a line: EMSA; apparent Kd; Hill fit; 3 mM Mg2+; EMSA: 35 mM Tris-Cl pH 7.5, 3 mM MgCl2, 50 mM KCl, 1 mM DTT, 10% glycerol, 10 nM DNA, 30 C, 5 min, 8% native PAGE in 0.5x TBE; DNA curtains: HR buffer (composition not given), 10 nM GFP-Rad54, flow 0.2 mL/min. The note with it: protein: recombinant; tags: GFP-GST (N-term); label: Atto647N 5' on strand 1; blunt.

B1: 90 bp dsDNA (90-mer) (dsDNA)
DNA 1: GATGTTCTGCTGGATATGCACTTTTCCGGGCTGACGTACACCGTGCTCAGCCTGTTTTTCAGCGATCCGGATATGCATCCGCTGGATTTC
DNA 2: GAAATCCAGCGGATGCATATCCGGATCGCTGAAAAACAGGCTGAGCACGGTGTACGTCAGCCCGGAAAAGTGCATATCCAGCAGAACATC
As for B1, the Kd stood at 21 nM.

Source of the values: publication PMC13138755, “Potential Rad54 separation of function mutation highlights unique roles during homologous recombination”.
